{"source": "the DeepSol protein solubility set"}
{"test": "soluble on expression in E. coli; label from the status in PepcDB or PDB records"}
{"sequence": "MNEEGGYLGAMTYQCLYSPVMEKIKQQHRDDPRASLALNKLHTALTTCEQASPSFLYDFTKVLLDDSELSVNLQESYLRMHDTSPTNDLIVSGYEQNADYKELTKRAIELRRVLSRVPEEMSDRHAFLETIKLIASSIKKLLEAINAVYRIVPLTAQPAVEKRKREFVHYSKRFSNTLKTYFKDQNANQVSVSANQLVFQTTMIVRTINEKLRRG", "soluble on expression in E. coli": "not soluble"}
{"sequence": "MNEKQADTLLNVPEIVKRAKIALNLKRDSELASYLGVARATLSNWCARNSIDFPLLLNKLRHVDYNWLLTGKGSPLHDPKSFDNGKIRGEVETIHNSKTTEAIDDRSVTLYDITAAANLRTLLSDKRQYALGKILIPSIPACDGAIFVNGDSMYPILKSGDIVGFKGINNFSNVIYGEMYIVAFHLDGDQYLTVKYVNRSEKEGYVKLVSYNPHHEPMDLPVDTIQDMAIVKFSIRKNMMM", "soluble on expression in E. coli": "not soluble"}
{"sequence": "MNEKWIVERAEREGGRLWLYVNDAPVPLARVTPKRHMLVDSDALAFAYILETDDRFLYVMVPKLWWPELKAALDAEEPVWLRCGERTLELEQFHDELSYLLENIRGNANYGEALEQAVQDVFFEQ", "soluble on expression in E. coli": "not soluble"}
{"sequence": "MNELINGNAIKMTSIEIAELVESRHSNVKVSIDRLVKRGVIKPPALQHTNIINDLGVITGKRDFYVFEGEKGKRDSIIVVAQLSPEFTARLVDRWRELEEAAVNIPKTLPEALRLAADLAEQKMQLENQLAIAAPKVEFADRVGEASGILIGNFAKVVGIGPNKLFAWMRDHKILIASGARRNVPMQEYMERGYFTVKETAVNTNHGIQISFTTKITGRGQQWLTRKLLDNGMLKVTGEAA", "soluble on expression in E. coli": "not soluble"}
{"sequence": "MNELRDPGDAVIAIVGGGASGVLVALQLLRQAVAPVQIVVIEPHAVLGEGVAYSTARPEHLLNVPAARMSALVEAPQDFVDYLRAHACCPELEDARLPQAFVGRRHYAPYLRDRLQTARVQSPATLIVHSARVQTLHADADGALLQLDDGQTLHATSVVLAVGNALRPLPLRGATGLSATQRLEAWDTEAVAALPQDAAVCIVGSGLSMADTVVTLAAQAHRGAVHVVSRHGLLPLPQAHCVAADFDPQPLLALSLRARMRSLRQHAQVAMAQGLPWQGVMERVRPLNQVLWQTLSVADQRRFLRHVVRYWDVHRHRIAAPVHAQLQAMRARGQLQLHRARLDVAFQAGACVRLSAGASAGHALQLDVQTLVNATGVEMRVQAMRNPLLQQLLGQGIAVAGSHGIGVDTAADGCLIDAEGHANPRLRVIGSLRIGSLWESLAVPELREQAAAIARDVLALLGR", "soluble on expression in E. coli": "not soluble"}
{"sequence": "MNEREAKMYELEFPAPDVASDGVDGPTLIIAMQGYADAGLAVEASADHLLSALEHRPVAVFNNDELIDYRSRRPAVTIDHNIVVDANELKLSMDVLRDSNGTPFLLLSGPEPDLRWDAFSQAVADLVRRFGVRRTICIYAAPMTVPHTRPLIVSAHGNSLDLIKHHFSIDSKVTIPGSASLHIERLLNKNNIDVAGYTAHVPHYLSASAYPLATLKLLEAITTSTNLDFPLKTLEADAQKTALQVEEQVAGSQEIESVVKILEQQYDEELEKYRERNPKALEIAEDDLPDADELGEEFERFLANIDEENGSDD", "soluble on expression in E. coli": "not soluble"}
{"sequence": "MNFDVVIIGGGLAGLTCGIALQKQGKQCAIINNGQAAIDFSSGSMDLLSCLPSGQKVHVFCEAFSELSQQAPEHPYCLLGQHQVVAKVQQFEQFMQELGLVGSHKQNHLRVTPLGGLRHTWLSPKSVPVIAENEHFPYRQIAILGIEGYHDFQPQILVDNLKQNAAFSHCDFSIGYLNIPELDYLRQNAREFRSVNIAQLLEHKLAFEDLVQEIKQAAGNAQAVFLLACFGLDDQRFFDSLKQATALALFELPTLPPSLIGIRQYRTLRDQFEKLGGLLLNGDRAVRAEFDGDRVARIFTTLHQEESINAAHFVLASGSFFSNGLVAEFERVKEPIFDLDIIGNKAFINSERVSWTDKRFAAAQPYQSAGVAINHHCQVYKNGHLIPNLYAIGNVIGGFWGIEQGCASGVSVVTALTVAEWVGGTKLEHHHHHH", "soluble on expression in E. coli": "not soluble"}
{"sequence": "MNFDWQMPRDPFADDPNDPASFIEDDEQAPPLTEAERQHIREDLALVKRFKEALEPRGINGIFFLCEDCDEDHYYDWDIMAANMRATLAGELAPVHEPSVNPNPHAYVPWDYCLGYLDGLEAPRMRFF", "soluble on expression in E. coli": "not soluble"}
{"sequence": "MNFQKVCSLDELWEGDMTEVEVAGHVIVLVRPEGGEPRAFQGICPHQDIPLAEGKFDGRVLMCRAHQWTFDANTGKGINPGGARLAEYALKVEGDDILVAVEGVEPLFANC", "soluble on expression in E. coli": "soluble"}
{"sequence": "MNFSGKYQVQSQENFEPFMKAMGLPEDLIQKGKDIKGVSEIVHEGKKVKLTITYGSKVIHNEFTLGEECELETMTGEKVKAVVKMEGDNKMVTTFKGIKSVTEFNGDTITNTMTLGDIVYKRVSKRI", "soluble on expression in E. coli": "soluble"}
{"sequence": "MNFYSLSVFIALVFSFNAADGHRCHRRGNGGFSKIFDKSTIQKIVPFFLIKIQNQNKNNIF", "soluble on expression in E. coli": "not soluble"}
{"sequence": "MNGESDCATCTISGAKLGNALGAIWTFVHTMEQGDVVLVRHGAWLSIGIIGPYRYVKHLDNDIYGFCHQRSVEWKIINENVRLYNEKVHETLRHPGVVTKSKYTVHELQLGIEW", "soluble on expression in E. coli": "not soluble"}
{"sequence": "MNGHISNHPSSFGMYPSQMNGYGSSPTFSQTDREHGSKTSAKALYEQRKNYARDSVSSVSDISQYRVEHLTTFVLDRKDAMITVDDGIRKLKLLDAKGKVWTQDMILQVDDRAVSLIDLESKNELENFPLNTIQHCQAVMHSCSYDSVLALVCKEPTQNKPDLHLFQCDEVKANLISEDIESAISDSKGGKQKRRPDALRMISNADPSIPPPPRAPAPAPPGTVTQVDVRSRVAAWSAWAADQGDFEKPRQYHEQEETPEMMAARIDRDVQILNHILDDIEFFITKLQKAAEAFSELSKRKKNKKGKRKGPGEGVLTLRAKPPPPDEFLDCFQKFKHGFNLLAKLKSHIQNPSAADLVHFLFTPLNMVVQATGGPELASSVLSPLLNKDTIDFLNYTVNGDERQLWMSLGGTWMKARAEWPKEQFIPPYVPRFRNGWEPPMLNFMGATMEQDLYQLAESVANVAEHQRKQEIKRLSTEHSSVSEYHPADGYAFSSNIYTRGSHLDQGEAAVAFKPTSNRHIDRNYEPLKTQPKKYAKSKYDFVARNNSELSVLKDDILEILDDRKQWWKVRNASGDSGFVPNNILDIVRPPESGLGRADPPYTHTIQKQRMEYGPRPADTPPAPSPPPTPAPVPVPLPPSTPAPVPVSKVPANITRQNSSSSDSGGSIVRDSQRHKQLPVDRRKSQMEEVQDELIHRLTIGRSAAQKKFHVPRQNVPVINITYDSTPEDVKTWLQSKGFNPVTVNSLGVLNGAQLFSLNKDELRTVCPEGARVYSQITVQKAALEDSSGSSELQEIMRRRQEKISAAASDSGVESFDEGSSH", "soluble on expression in E. coli": "soluble"}
{"sequence": "MNGSRSTFLYLLAAAGLALTPAAQADRGNDVVARLNQLYNDTRQDCGGPSKPAFLCSGVLFRATWPSTDYMFYSISPKSQKSGGVSASYLRKDAKYRKLAYGLKSGFIFDTIFGNPKDHQDYAVLCSFPIDAATDDRAQQGCTDSRRTPNSVEKSCQDINVSTAEQWAANYRQNRGDHSRQCSFDVRDERNTAAGPAFYQSIRAMAQIADESFTTQNELRLAKWEENPPKSPSILAAFYTEDAGLEGARLNQIQWYQSVQAFLPIINMRLPQTRQQDAQFAYDGRKQAIYPTSEKNACERYVESATWVERDDPGFRKKIMTLEVVPTDCGRKIQDNQTNNFFNELVVDHYLDSEWKDNPDNRDSNIGSMRRQLVCHFNVARNKPEWNLEPSRPYTSNEDSIAKGCNNT", "soluble on expression in E. coli": "not soluble"}
{"sequence": "MNIKYSGIENRFETAILKKNGVRSGFVSFAPNLAAVKLNDYAKVRKRITKTKQKADIVIVMFHGGAEGKQAEHLPFDTEIFYGENRGNVVEFARLAVDSGADVVFGQGPHVTRAVELYRDRFISYSGGNFATYGAINTSGISGIAPIFKIITDKQGRFVSGNIIPITQVGDKIPKIDPEKTVIGRIIYLNRSDFPKGNGLDVSPDGSITRR", "soluble on expression in E. coli": "not soluble"}
{"sequence": "MNIQALINDKVSQALEAAGAPAGSPAAVRQSAKPQFGDYQANGVMGVAKKLGTNPREFAQKVLDVLDLDGIASKTEIAGPGFINIFLSEEFLAKQADAALADSR", "soluble on expression in E. coli": "not soluble"}
{"sequence": "MNISVFDLFSIGIGPSSSHTVGPMLAANAFLQLLEQKNLFDKTQRVKVELYGSLALTGKGHGTDKAILNGLENKAPETVDPASMIPRMHEILDSNLLNLAGKKEIPFHEATDFLFLQKELLPKHSNGMRFSAFDGNANLLIEQVYYSIGGGFITTEEDFDK", "soluble on expression in E. coli": "not soluble"}
{"sequence": "MNITPFPTLSPATIDAINVIGQWLAQDDFSGEVPYQADCVILAGNAVMPTIDAACKIARDQQIPLLISGGIGHSTTFLYSAIAQHPHYNTIRTTGRAEATILADIAHQFWHIPHEKIWIEDQSTNCGENARFSIALLNQAVERVHTAIVVQDPTMQRRTMATFRRMTGDNPDAPRWLSYPGFVPQLGNNADSVIFINQLQGLWPVERYLSLLTGELPRLRDDSDGYGPRGRDFIVHVDFPAEVIHAWQTLKHDAVLIEAMESRSLRLEHHHHHH", "soluble on expression in E. coli": "not soluble"}
{"sequence": "MNKAIFLDRDGTLNIDYGYVHEIDNFKFIDGVIDALRELKKMGYMLVLVTNQSGIARGYFSEDQFLQLTEWMDWSLAEQDVDLDGIYYCPHHSEGKGEYKEDCDCRKPKSGMLLQAIKELKIDPTQSIMVGDKVEDLKAGIGAKVKMNVLVRTGKPVTGEGEGIADYVLDSIVDLPRILKRLKKLEHHHHHH", "soluble on expression in E. coli": "not soluble"}
{"sequence": "MNKFIAAEAAECIGCHACEIACAVAHNQENWPLSHSDFRPRIHVVGKGQAANPVACHHCNNAPCVTACPVNALTFQSDSVQLDEQKCIGCKRCAIACPFGVVEMVDTIAQKCDLCNQRSSGTQACIEVCPTQALRLMDDKGLQQIKVARQRKTAAGKASSDAQPSRSAALLPVNSRKGADKISASERKTHFGEIYCGLDPQQATYESDRCVYCAEKANCNWHCPLHNAIPDYIRLVQEGKIIEAAELCHQTSSLPEICGRVCPQDRLCEGACTLKDHSGAVSIGNLERYITDTALAMGWRPDVSKVVPRSEKVAVIGAGPAGLGCADILARAGVQVDVFDRHPEIGGMLTFGIPPFKLDKTVLSQRREIFTAMGIDFHLNCEIGRDITFSDLTSEYDAVFIGVGTYGMMRADLPHEDAPGVIQALPFLTAHTRQLMGLPESEEYPLTDVEGKRVVVLGGGDTTMDCLRTSIRLNAASVTCAYRRDEVSMPGSRKEVVNAREEGVEFQFNVQPQYIACDEDGRLTAVGLIRTAMGEPGPDGRRRPRPVAGSEFELPADVLIMAFGFQAHAMPWLQGSGIKLDKWGLIQTGDVGYLPTQTHLKKVFAGGDAVHGADLVVTAMAAGRQAARDMLTLFDTKAS", "soluble on expression in E. coli": "not soluble"}
{"sequence": "MNKFNEEYRKMEEDAQRRHQELNRQSLENAAEMKDSRRKILNKEFEGAILIKQVEHETKQVEKKRENLEKGHKKEMRNMSADFRKKKNEIEMEQLKLAIGNRVENHNQRKVEEQLRNEQERFLKKLLKYHTTTGANRDLFGEFQKVLKPFNEMIGELQDIKLRCITDGDADNGYIEYEVDYVGQLRRSVYTEIDEFREYIADEKNISKEIGIACAIYVKKLERIADCKELNLLCDQLQAAIEGKNGEIIKTCEIFIDKFTQKFESISNGSTSDFHRLRLKAPERDIPSSSTLTIEN", "soluble on expression in E. coli": "not soluble"}
